PMC11369174 (Molecular Systems Biology, 2024)
Where no end group is shown, it is not given here.

Columns and labels:
Test in all cases: fluorescence polarisation; saturation binding: dilution series of the protein domain added to 10 nM FITC-labelled peptide; 50 mM sodium phosphate pH 7.4, 0.05% Tween (protein dialysed in 50 mM sodium phosphate with 1 mM DTT; CASK kinase domain with 100 mM NaCl in addition); quadratic fit; technical triplets
Details in all cases: both partners purified
[1] = biological target: T1, USP7 MATH/TRAF domain (human)
T1 construct: USP7, human, MATH/TRAF domain; source: E. coli BL21 (DE3) Gold, purified (glutathione or Ni2+ beads)

[2] = biological target: T2, MAP1LC3A ATG8 domain (human)
T2 construct: MAP1LC3A, human, ATG8 domain; source: E. coli BL21 (DE3) Gold, purified (glutathione or Ni2+ beads)

[3] = biological target: MAP1LC3B ATG8 domain (human, UniProt Q9GZQ8 1-120)
[4] = biological target: T3, GABARAPL1 ATG8 domain (human)
T3 construct: GABARAPL1, human, ATG8 domain; source: E. coli BL21 (DE3) Gold, purified (glutathione or Ni2+ beads)

Question: Which Kd [1] does the source give for DYSQPSTSSSIIY (also: FITC label, position not given here) [FITC-MDM2] here?
Answer: The Kd was 500 nM.

Question: With DDDWTHLSSK (also: FITC label, position not given here) [FITC-SQSTM1] as the binder, how does the Kd [2] read?
Answer: Its Kd is 680 nM.

Question: And the Kd [3]?
Answer: The Kd was 1400 nM.

Question: What about the Kd [4] of the same binder?
Answer: Its Kd is 3700 nM.
